# Test results: patent US9809653B2, “Anti-LAMP1 antibodies and antibody drug conjugates, and uses thereof” (SANOFI, priority 2012, dated 2017)
# T1: mLAMP1_ΔGYQTI (Mus musculus, UniProt P11438)
# T1 construct: expressed in transfected cells; host or cells: 293-F (HEK293-derived), transient transfection, plasmid pXL6009
# T1 sequence (P11438 with tags, fused parts or gaps limits assumed): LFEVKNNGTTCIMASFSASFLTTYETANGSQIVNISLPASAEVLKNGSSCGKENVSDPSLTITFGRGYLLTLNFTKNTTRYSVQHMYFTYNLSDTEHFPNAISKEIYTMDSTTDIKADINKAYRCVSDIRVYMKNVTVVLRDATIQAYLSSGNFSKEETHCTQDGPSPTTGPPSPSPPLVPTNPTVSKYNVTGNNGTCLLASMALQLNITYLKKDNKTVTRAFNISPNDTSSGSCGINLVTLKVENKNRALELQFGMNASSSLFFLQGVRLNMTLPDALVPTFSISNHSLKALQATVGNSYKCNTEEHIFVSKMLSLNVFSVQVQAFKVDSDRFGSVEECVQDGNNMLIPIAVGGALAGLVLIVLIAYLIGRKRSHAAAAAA
# T2: human LAMP1 expressed at the cell surface of recombinant HCT116 (HCT116 huLAMP1 clone 8) (Homo sapiens, UniProt P11279)
# T2 construct: full length human and cynomolgus monkey LAMP1 expressed at the cell surface of a recombinant cell line, wherein the cell line may be HCT116; expressed in transfected cells
# T2 sequence (P11279 29-417): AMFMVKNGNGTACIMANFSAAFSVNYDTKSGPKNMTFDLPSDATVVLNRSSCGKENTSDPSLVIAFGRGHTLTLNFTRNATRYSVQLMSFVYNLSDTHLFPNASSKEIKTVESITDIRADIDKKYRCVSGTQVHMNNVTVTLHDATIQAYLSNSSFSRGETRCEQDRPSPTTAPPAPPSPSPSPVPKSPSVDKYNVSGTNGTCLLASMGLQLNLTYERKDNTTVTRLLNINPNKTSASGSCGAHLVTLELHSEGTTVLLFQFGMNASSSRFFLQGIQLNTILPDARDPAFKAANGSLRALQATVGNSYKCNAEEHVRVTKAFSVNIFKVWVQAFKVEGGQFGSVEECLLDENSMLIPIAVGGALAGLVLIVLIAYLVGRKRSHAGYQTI
# Tests used:
# mLAMP1_ΔGYQTI = target: T1, mLAMP1_ΔGYQTI; assay: Binding onto membrane-anchored murine LAMP1 (293-F cells) by flow cytometry; details: pXL6009 mLAMP1_ΔGYQTI
# Source text: Different LAMP1 proteins were expressed at the cell membrane of HEK293 cells after transient expression from mammalian plasmids encoding the entire coding sequence of LAMP1 deleted of the intracellular lysosome-targeting motif GYQTI and substituted by a 5-Ala repeat sequence. Mammalian plasmids had similar expression signals as plasmids used to produce recombinant LAMP1 described in example 6.2. Table 14 below lists all the plasmids that were designed in order to confirm the results obtained with soluble LAMP1 protein by ELISA in example 6.3 and further characterize the binding domains of the anti-LAMP1 mAbs.
# Each expression plasmid described in example 6.4 was complexed with 293Fectin™ in suspension-cultivated 293-F cells as using the protocol outlined in example 6.2. Two days post transfection cells were processed, analyzed by flow cytometry (Guava® easyCyte™ 8HT) as mentioned in example 4.7, and the mean fluorescence was recorded. This fluorescence represents a semi-quantitative assessment of binding.
# [1] = target: T2, human LAMP1 expressed at the cell surface of recombinant HCT116 (HCT116 huLAMP1 clone 8); assay: FACS on recombinant HCT116 stable clones expressing human LAMP1; format: binding
# Method: HCT116 cells were infected by a lentiviral vector allowing stable integration of the human or the cynomolgus LAMP1 CDS in genomic DNA of cells. Individual clones with different densities of human or cynomolgus LAMP1 cell surface localization were derived from a pool of HCT116 infected cells. […] 100 μL/well of goat anti-human IgG conjugated with Alexa488 (Invitrogen; #A11013) was added for 1 h at 4° C. and washed two times with PBS 1% BSA. The antibody binding was evaluated after centrifugation and resuspension of cells in 100 μl fixing solution (paraformaldehyde at 4% in PBS). Samples were read using Galaxy® Flow Cytometry System (Partec). EC50 values were estimated using BIOST@T-SPEED software.
# 100 μL/well of goat anti-mouse IgG conjugated with Alexa647 (Invitrogen; #A2135) was added for 45 min at 4° C. and washed three times with PBS 1% BSA. The antibody binding was evaluated after centrifugation and re-suspension of cells by adding 200 μl/well PBS 1% BSA and read using Guava® easyCyte™ 8HT Flow Cytometry System. EC50 values were estimated using BIOST@T-SPEED software.
# HCT116 stable clone was obtained as described above. […]
# DM4-SPDB-huMAb1_1 was assessed by flow cytometry for its ability to bind to human LAMP1 or cynomolgus LAMP1 proteins expressed respectively at the surface of HCT116 or HEK293 stable clones, both obtained as described in the protocol of example 4.7. […]
Binding call (mLAMP1_ΔGYQTI; Table 17 Experiment no1),Mean fluorescence (mLAMP1_ΔGYQTI; Table 17 Experiment no1),Binding call (mLAMP1_ΔGYQTI; Table 17 Experiment no2),Mean fluorescence (mLAMP1_ΔGYQTI; Table 17 Experiment no2),Mean fluorescence (mLAMP1_ΔGYQTI; Table 18),EC50 [1] [nM],Binding call (mLAMP1_ΔGYQTI; Table 18),Molecule
No binding,4,No binding,2,13,4.9,–,"MAb1: murine monoclonal anti-LAMP1 antibody, VH SEQ ID NO: 1, VL SEQ ID NO: 5 (antibody, V domains shown, Antibody Fragment; antibody fragment) VH: QVQLQQSGAELVKPGASVKMSCKASGYIFTNYNIHWVKKSPGQGLEWIGAIYPGNGDAPYSQKFKDKATLTADKSSSTTYMQLSRLTSEDSAVYYCVRANWDVAFAYWGQGTLVSVSA VL: DIQMTQSPPSLSASLGGKVTITCKASQDIDRYMAWYQDKPGKGPRLLIHDTSTLQPGIPSRFSGSGSGRDYSFSISNLEPEDIATYYCLQYDNLWTFGGGTKLEIK"
No binding,21,–,–,27,6.3,No binding,"MAb2: murine monoclonal anti-LAMP1 antibody, VH SEQ ID NO: 8, VL SEQ ID NO: 12 (antibody, V domains shown, antibod fragment; antibody fragment) VH: QVQLQQSAAELARPGASVKMSCKASGYTFTSYTMHWVKQRPGQGLEWIGYFNPSSGYPEYNQKFKDKTTLTADKSSNTAFIQLNSLTSEDSAVYYCSRGYYYGSRGYALDFWGQGASVTVSS VL: NIVLTQSPVSLAVSLGQRATISCRASESVDINGNTFMHWYQQKPGQSPKLVIYAASNIESGVPARFSGSGSSTDFTFTIDPVEADDVATYYCQQNIEDPWTFGGGTKVEIK"
